Experimental data reported in the DeepSol protein solubility set.

assay: soluble on expression in E. coli; label from the status in PepcDB or PDB records

| Sequence | soluble on expression in E. coli |
| --- | --- |
| MRQVDFSPFYRSTVGFDHLFNWFDSRTQPDDVSSYPPYNIERLSEDSYRISMAVAGFSQDEIDIETHCNQLIVRGERKPENDDEEREFLYRGIASRAFERRFHLADHVKVIGAELGDGLLHIQLKREMPAELKPKKIVVQASSSAVKNGNDHAVRKVSLENERTE | not soluble |
| MSLNVLSVSSEIYPLIKTGGLADVVGALPIALEAHGVRTRTLIPGYPAVKAAVTDPVKCFEFTDLLGEKADLLEVQHERLDLLILDAPAYYERSGGPYLGQTGKDYPDNWKRFAALSLAAARIGAGVLPGWRPDMVHAHDWQAAMTPVYMRYAETPEIPSLLTIHNIAFQGQFGANIFSKLALPAHAFGMEGIEYYNDVSFLKGGLQTATALSTVSPSYAEEILTAEFGMGLEGVIGSRAHVLHGIVNGIDADVWNPATDHLIHDNYSAANLKNRALNKKAVAEHFRIDDDGSPLFCVISRLTWQKGIDLMAEAVDEIVSLGGRLVVLGAGDVALEGALLAAASRHHGRVGVAIGYNEPLSHLMQAGCDAIIIPSRFEPCGLTQLYALRYGCIPVVARTGGLADTVIDANHAALASKAATGVQFSPVTLDGLKQAIRRTVRYYHDPKLWTQMQKLGMKSDVSWEKSAGLYAALYSQLISKGHEGHHHHHH | soluble |
| GPGSMSASSAPDRVYVGKRLHFTNGSRQLVRCGTRNIAVVCNRNELYAIDNACYHHGGPLLLGDIEEMGGHPCIVCPWHSYKIALDTGEGLYLGVELSPAGGTPKQVVRSKGCKQRVHKVEVDEADDVYVLVDLSGPTLESDTYASMELANRERPMSLPVDGGGRGLRVPGIHSHAGVELRSGQVFQHMGSLAEAGGNTGTRGANSLDHAQKTRPHEITSRGSSCSSPTTRLMVSCVAITDVCPQVRQFDFVHHAGPLLRHAELGEYVELELPIKERRTANGGGGQAVDLLSSSSAPAATAGEPMRRRWTICDMNHNSTLFSIIVKAAGTDTQASGSAWLHEHSLSVPLPITRVGGTFTFARHRDTIRRVGGRVLWLTAGVGMTPAYAFLNASLGNSLYVASAEPLHVVHLHSNRTLETVPKLEQFGRWQREFPRSALDTAEKTSGGSGARKPGKTYVMELFIALSTDAGQGQRTSPGSSPPDSCPVATITHRSRLQPANVSAAVQKYFGADMQLAYVCGPQKFVKDCTEALVSTGVPESHILTDDP | not soluble |
| MSQLVLDLKCLKDKIATNYDIHNNVYGGNGMEPNIIHPSKRFRIVVRLVDFLFCKSDEEFIKGFFCQMIVRNLHCLNSTNGAEEMRLYMSERLFSAHKDDLRLINGQVLDVRIGVWYGIHQSPPIFEIIDFKILSRNDVRDFCEFVKSPLGEKFLNISNS | not soluble |
| MGSDKIHHHHHHSQTRYFADKKVSKSKNIVAADKVTDKEKETETWTSIPQRAVAYQELTTYEDSNLTKSVGKIPAKTQLDIPEIVGKSFKLKTGKYISTDKKAVISDLTISRESINTTIYTDKSVNVFYNPVTTYDNQIMTNLSGTHQLSADKMAKTNWGTYYEVSLDNGQKGWVSENDISLENPKIKQVQALLNQKYNDKKYSIYVKELDDKFTAGVNQEQKMYSASLSKIPILYWTQKRLNEGLASLDDKLLYTPAINTFYGSYKPEGTGNLPKTADNKYYSLQDVINRTAKLSDNVGSNMLAYYETQEFNPNYQKEINRIAGQEWNPKERNASAQMVGRMLEALYNEGGASFNALFDTSFDDVKIRAGVPKNISVAHKIGGADTDNHDAAIVFASKPYLLVIETDGATDDEIKAISQDVYGVMK | not soluble |
| SRVSVTDYKRLLDSGAFHLLLDVRPQVEVDICRLPHALHIPLKHLERRDAESLKLLKEAIWEEKQGTQEGAAVPIYVICKLGNDSQKAVKILQSLSAAQELDPLTVRDVVGGLMAWAAKIDGTFPQY | soluble |
| MDEDTEDWETQLQANRDEKDRFFSEHRQSPIPPEERDDFDGLSYFDPDPDYRVEATVTVHETPESVDLETSDDRTVRYLHVATLSFDLDGESRDLHAFRQAADESRTLFVPFRDKTTGQQSYDGGRYMELEPDRDLSDGDEITLDFNLAYSPFCAYSDTFSCPLPPESNWLETAVTAGERTDLEHHHHHH | soluble |
| MDYREVDSTSEFVCRLEHGGDWRAQIEAFADEQGIDAGFFYGLGAVQDAELMFYDQDRTEYDSLTFDEPLEVAACMGNISHFDGERFAHTHAVLSRPDGEAVAGHLNAGTVWAGELYVRGFDTELQREHDEPTDLDLWNILEHHHHHH | not soluble |
| MGSDKIHHHHHHMDYPDKMTPAQRAAAKAKGEPADRVACNPNIANGMARIAGYKISQFNDDPEALADAIIKTYRRFGADGARIFTDLFLVSEAMGAKVRKPEDNTADLEEPAINDMSEFDKLKVIDPYTQGRIPVHLRAIEIVRDEIASEVGVTASVVGPFTNAFFLIGVEKMTKMLLKDPESVHKLCEISLQSCIALTDAVLEKGVGVTISEPLSSCTVVSPKHFREFSAPYLKRLIDHIKARTGKLVIHICGITDPIWDDLVEMGVDVLSIDNVADMEKCAETVGDKMVIAGNVDPSAIMYAGSREDVRKATIKCAKQGLKAKKGFMIMSGCSLPVEVPIENIDAMMDTAREMGWPVTEEKLDYLLSFDKYKD | not soluble |
| MHFHVNNVVTSSQIDDVLVKICTGPLFDNGTPFITYGCVLHLSSERGIIRTFDEKLCLFELKDLNMDGVVDMTDVLPLGCTLKFFATRQNHHTFTASNVSPICEPAAQLIFLNSTEMNVITPDFTSTGSSNHYSVEKERFAYVRILELFQQQAVLSLPLSSMISELGKFGEDDVSQYIGISDEERGMFIKRRTHLFTVGWNDLVTLQSPDFYQAIVLILSYILCNGGVTSTENVFEFYQTDNVPLSVRQRTGSDMNSFREIIDFHSWAFTLSSHGTYVSAKRNLPHFDYMSFFEGIVCTATPQRHQKSKLLKHPPGLQIPLLNTRAQALGQASMHQQQQEHISNPYQGYQPYLHREDMTNGMKKPTGTLIDGANQKHCFGMQVSSPDRNAFEKPSVFGHTWGDVIAFNKNSANFSRGMQSKRRYNLSSMFRNLKYSGFRSSIDSTSSSDDSQSLDNCSTSGVNNMLIGCGPQMY | not soluble |
| MSKNIKTPTNQKVLTNVAVVRMKKTGKRFEIACYKNKVVNWRNKSEKDIDEVLQTHTVFSNVSKGQLSKKEELIAAFGIEDQLEICKIILDKGDLQVSEKERQAASDQSLKEVSQLIASMVVNPETKRPVPPSVIDKALQEMHFSLKPNRSSKQQALDAIPKLRETLKIERAKMKIRVAIPTKEAKSVHTKLKTLFSDVEVDDWQDGSLEMVGLIEPGSFRALDDLVRNETKGHGRLEILSLKDVVEGELQIS | soluble |
| MGHHHHHHSHMRKTLIALMFATALPAIAMAAPPAPPAGAPDADAPGMHMQRGDRGPGMHRGPGPLKELDLTREQRQQIDRLMREQMHERREITQNYLEKMPAADQKAMRDEIEAKRSKTDSEVRALLKPDQQKQFDEIKKKEDERRAEWAEFKAWKAAKTAKAQ | soluble |
| MAHHHHHHMDEFRPDDTTQIEEGSESNAALLQLQDALVSALTASGTLGKIRAQLRATALALIRGDDELQNAAVGPFIRPRTLTTHAKVSLLLLHDFLQHYHLQQTAGVLDVESSVHLLFNERSVLLGDLARLPGDGSLLERLVRLYEPTRQIPAVGPSGATAVTTASQTSVSIPAAKLPASPVASSSSSASQEQTVAMAQPQDADVQYELDAYEDSIPFSDTEGTIDGNVHCDEVERLTQ | not soluble |
| MAFSSRKEISSRNSERSTDDTACLRMSENGVALWCEKNVFVQENQPFVDYLPYFCSKVIGTLSIGKNLCGSFSGEKQSIPDKTIMVNIKI | not soluble |
| MSLEKLTVSDSKKLFHEQFPYVIPGLYKRIVDEMLVELNLLNHQNEFIQDDLFCVGLTETFKELTKGYKPEEHLRVLFESLCNSSNFEPKKIKEASKKTLEVYKDKSLKEISILLKQKSDSNLYSSRIMNLGIYLIIANATDFKDIKDPEKNKIISDIINKLNLSFNKAEKDIGIYKSSILKMEQAKELLQEAKIKDKKEKEGHHHHHH | soluble |
| MVIATDDLETTCPNCNGSGREEPEPCPKCLGKGVILTAQGSTLLHFIKKHIHE | soluble |
| MHQQIIKFWFEELTPQNWFENNPELDKHIASRFASVLEQAARCELFNWRDSAQGRLAEIIVLDQFSRNVYRNTPKAFAQDPLALALAQEAIRLGHDQELAPEQLSFLYMPFMHSESRLIHVEAEKLFRASGLENNYDFELKHKAIIDQFGRYPHRNAILGRESTPEELAFLQQPGS | soluble |
